Reference: US20150148405A1, “Expression Construct for a Lin28-Resistant Let-7 Precursor MicroRNA” (THE JOHNS HOPKINS UNIVERSITY, priority 2012, published 2015)

Tests used:
Format in all cases: cell-based, mouse
cultured neurons = assay: 35S-labelling total protein synthesis; conditions: mock or BDNF 100 ng/mL 2 hours, Actinomycin-D
Description: Cultured neurons were pre-incubated in media containing reduced-serum and Actinomycin-D as previously described, followed by washing and incubation for 10 min with methionine- and cysteine-free DMEM (Mediatech, Inc.), and ^35S labeling in the same DMEM with the addition of ^355-methionine/cysteine (^35S Met/Cys EasyTag Mix, Perkin Elmer) to a final concentration of […]. Mock- or BDNF stimulation was for 2 hours. Cells were washed and lysed with lysis buffer (see immunoblotting). Lysates were centrifuged and collected supernatants subjected to Bradford assay. To assess newly synthesized proteins, 200-500 μg of lysates proteins were precipitated with 10% trichloroacetic acid (TCA) for 1 hour on ice in the presence of 0.5% deoxycholate (DOC) to remove interfering phenol red. After centrifugation, protein pellets were washed with ice-cold 95% ethanol, solubilized in denaturing buffer ([…] Tris pH 8.3, 5 mM EDTA, 0.05% SDS, 6M urea), and subjected to liquid scintillation counting (Econofluor, New England Nuclear, Inc.). ^35S Disintegration per minute (DPM) was used to quantitate protein synthesis after subtraction of background readings.

miR-17 = assay: Northern blot of control miRNA miR-17; conditions: BDNF-treated (30 min) neurons
Description: Northern blots were carried out as described (Hwang et al., 2007), using the following LNA probes from Exiqon: Let-7a (5′ […] 3′; SEQ ID NO: 1), pre-Let-7a (5′ GTGGGTGTGACCCTA 3′; SEQ ID NO: 2), miR-17 (5′ […] 3′; SEQ ID NO: 3) and quantified by phosphoimaging.

TRBP = assay: Immunoblotting for TRBP; conditions: 5 min after BDNF; +/-0.86
Description: (§1) Primary cultures of mouse hippocampal neurons (DIV 14 15) were incubated in serum-reduced medium (0.5% B27 supplement) for 2 hours, followed by […] Actinomycin-D for 10-20 min. Bath application of BDNF (100 ng/mL) was for designated periods (5 min-2 hours). The cultures were washed 3 times and harvested on ice with lysis buffer (50 mM Hepes, 150 mM NaCl, 10% Glycerol, 1 mM EDTA, 1% Triton-X-100, 0.2% SDS) plus freshly added protease inhibitor cocktail (Roche) and PMSF. Protein concentration was determined by Bradford Assay. If required, lysates were treated with Lambda Protein Phosphatase according to manufacturer's instructions (New England Biolabs […]). Equal amounts of lysate protein were resolved on SDS-PAGE gels, and electrotransferred to PVDF membrane. […]

[1] = tested on: hippocampal pyramidal neurons; assay: Endogenous P-body numbers by GW182 immunostaining; conditions: 75 min after stimulation; mock 11.36±1.21; p<0.05
From the text: For fixed cells, confocal images were acquired in 0.3 μm (dendrites) or 1.7 μm (whole cells for arborization) Z sections on an LSM5 Pascal system (Carl Zeiss) using a 63×, 1.4 NA Plan Apochromat oil immersion objective and 2× optical zoom (dendrites) or using a 25×, 0.80 NA Plan-Neofluor multi-immersion objective and 0.7×-1× optical zoom (for whole cells). GFP was excited at 488 nm and emissions collected at 505-530 nm; mCherry was excited at 543 nm and emissions collected above 560 nm. Laser power and exposure time were adjusted to minimize photobleaching and avoid saturation. All experiments were from a minimum of 3 independent cultures and no more than 3 neurons per dish Z-stacks containing the entire neuron or process of interest were analyzed using Imaris 7.0.0 (Bitplane) and ImageJ software. […] The percent colocalization of P-body components was calculated by […]. The percent of colocalized fluorescence was calculated for each P-body component by first summing the aggregate fluorescence values that co-localized with the other P-body marker in ‘spots’, then dividing this quantity by the value of the total fluorescence intensity within the dendrite for that channel, and multiplying by 100. […]

Dicer = assay: Immunoblotting for Dicer; conditions: BDNF-stimulated neurons, Actinomycin-D
Description: as §1

phospho-ERK = assay: Immunoblotting for phospho-ERK; conditions: BDNF-stimulated neurons, Actinomycin-D
Description: as §1

B1: BDNF: brain-derived neurotrophic factor, a neurotrophin used to stimulate hippocampal neurons (protein, UniProt P23560 19-247, looked up)
Neurotrophic factor BDNF …: APMKEANIRGQGGLAYPGVRTHGTLESVNGPKAGSRGLTSLADTFEHVIEELLDEDQKVRPNEENNKDADLYTSRVMLSSQVPLEPPLLFLLEEYKNYLDAANMSMRVRRHSDPARRGELSVCDSISEWVTAADKKTAVDMSGGTVTVLEKVPVSKGQLKQYFYETKCNPMGYTKEGCRGIDKRHWNSQCRTTQSYVRALTMDSKKRIGWRFIRIDTSCVCTLTIKRGR
B1 was tested, and the “total protein synthesis (35S incorporation)” value (cultured neurons) was “modest enhancement of total translation”, the “mature miR-17 level” value (miR-17) was “modestly increased” and the “total TRBP protein levels, fold increase” value (TRBP) was 2.61 fold. The “endogenous P-body numbers in individual neuronal dendrites, mean±SEM” value [1] was 15.48±1.26, the Dicer levels (Dicer) was “marked transcription-independent increase in Dicer levels” and the “time of peak Dicer levels after stimulation” value (Dicer) was 5 to 20 min. For the same molecule, the phospho-ERK induction (phospho-ERK) was “rapidly induced phospho-ERK”.
